# Like-named read-outs stand apart in the source and are kept apart here. Square brackets hold non-standard residues; d marks the D form. Ends that are not written are not given here. hArg = N=C(N)NCCCC[C@H](N)C(=O)O; Nle = CCCC[C@H](N)C(=O)O; Aib = CC(C)(N)C(=O)O
# T1: wild-type human PTH/PTHrP receptor (hP1R-WT) (human, UniProt Q03431 27-593)
# T1 sequence (looked up): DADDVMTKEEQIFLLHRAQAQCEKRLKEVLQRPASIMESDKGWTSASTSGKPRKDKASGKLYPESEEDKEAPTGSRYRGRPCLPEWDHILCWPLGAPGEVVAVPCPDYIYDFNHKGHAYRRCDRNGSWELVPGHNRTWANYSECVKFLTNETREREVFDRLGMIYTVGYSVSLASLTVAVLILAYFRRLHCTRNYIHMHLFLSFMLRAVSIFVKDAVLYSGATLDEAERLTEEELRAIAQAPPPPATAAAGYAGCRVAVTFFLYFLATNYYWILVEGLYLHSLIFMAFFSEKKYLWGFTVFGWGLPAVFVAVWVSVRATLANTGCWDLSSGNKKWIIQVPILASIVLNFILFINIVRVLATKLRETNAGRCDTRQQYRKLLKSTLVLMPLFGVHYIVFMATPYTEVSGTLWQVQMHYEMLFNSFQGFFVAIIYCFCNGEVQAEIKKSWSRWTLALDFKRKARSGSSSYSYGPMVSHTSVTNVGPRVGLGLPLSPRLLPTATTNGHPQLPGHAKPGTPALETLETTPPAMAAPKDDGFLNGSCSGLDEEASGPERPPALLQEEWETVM
# T2: truncated human P1R deleted for residues (24-181) (hP1R-delNt) (human, UniProt Q03431 182-593)
# T2 sequence (looked up): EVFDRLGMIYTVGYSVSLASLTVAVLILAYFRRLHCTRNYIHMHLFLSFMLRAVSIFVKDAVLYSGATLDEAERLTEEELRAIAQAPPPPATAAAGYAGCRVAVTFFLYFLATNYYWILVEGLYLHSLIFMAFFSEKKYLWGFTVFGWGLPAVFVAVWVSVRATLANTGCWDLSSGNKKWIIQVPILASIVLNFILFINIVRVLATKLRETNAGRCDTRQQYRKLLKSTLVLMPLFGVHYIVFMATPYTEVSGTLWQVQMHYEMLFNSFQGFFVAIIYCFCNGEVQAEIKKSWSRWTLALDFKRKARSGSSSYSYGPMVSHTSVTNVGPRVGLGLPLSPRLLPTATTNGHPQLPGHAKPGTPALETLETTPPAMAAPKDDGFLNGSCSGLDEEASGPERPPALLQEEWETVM
# Columns and labels:
# [1] = target: T1, wild-type human PTH/PTHrP receptor …; assay: cell-based or functional assay
# [2] = target: T1, wild-type human PTH/PTHrP receptor …; assay: cell-based or functional assay; remark: listed apart in the source
# [3] = target: T2, truncated human P1R deleted for …; assay: cell-based or functional assay
# [4] = target: T2, truncated human P1R deleted for …; assay: Scatchard transformation of homologous competition binding, COS-7 cells
# Description: (§1) The cells were subsequently lysed with 0.5 mL […] NaOH and counted for radioactivity. For each tracer and in each experiment, the non-specific binding was determined as the radioactivity that bound in the presence of the same unlabeled peptide at a concentration of 1 μM, and was ˜1% of total radioactivity added for each tracer. The maximum specific binding (B₀) was the total radioactivity bound in the absence of competing ligand, corrected for nonspecific binding, and for each tracer, ranged from 8% to 20% of the total radioactivity added. Nonlinear regression was used to calculate binding IC₅₀ values (see below). Scatchard transformations of homologous competition binding data derived from studies with 26 fmol of ¹²⁵I-[Aib^{1,3},M]PTH(1-21) were employed for estimations of apparent equilibrium dissociation constant (kDapps) and total number of ligand binding sites (Bₘₐₓ), assuming a single class of binding sites and equal affinities of the iodinated and non iodinated ligand.
# To potentially improve affinity of this peptide, the paired Aib-1,3 modifications were introduced to produce [Aib^{1,3},M]PTH(1-21). […] The total specific binding observed in COS-7 cells tranfected with vector DNA alone was<2% of total radioactivity added. This radioligand, therefore, enabled competition binding experiments to be performed with both the wild-type and truncated PTH-1 receptors.
# [5] = target: T1, wild-type human PTH/PTHrP receptor …; assay: competition binding, 125I-[Aib1,3,M]PTH(1-21) tracer, COS-7 cells expressing hP1R-WT
# Description: as §1, with “Competition Binding. Binding reactions were performed with HKRK-B28 cells or in COS-7 cells in 24-well plates. The cells were rinsed with 0.5 mL of binding buffer, and then treated successively with 100 μL binding buffer, 100 μL of binding buffer containing various amounts of unlabeled competitor ligand, and 100 μL of binding buffer containing ca. 100,000 cpm of ¹²⁵I-[M]PTH(1-21) or ¹²⁵I-[Aib^{1,3},M]PTH(1-21)} (ca. 26 fmol; final volume=300 μL). Incubations were 4 to 6 h at 4° C., at which time near equilibrium conditions were attained. Cells were then placed on ice, the binding medium was removed, and the monolayer was rinsed three times with 0.5 mL of cold binding buffer. The cells” for “The cells”
# [6] = target: T2, truncated human P1R deleted for …; assay: competition binding, 125I-[Aib1,3,M]PTH(1-21) tracer, COS-7 cells expressing hP1R-delNt
# Description: Stock solutions of EGTA/trypsin and antibiotics were from GIBCO; fetal bovine serum was from Hyclone Laboratories (Logan, Utah). […] All cells, in 24-well plates, were treated with fresh media and shifted to 33° C. for 12 to 24 h prior to assay.
# as §1, with “Competition Binding. Binding reactions were performed with HKRK-B28 cells or in COS-7 cells in 24-well plates. The cells were rinsed with 0.5 mL of binding buffer, and then treated successively with 100 μL binding buffer, 100 μL of binding buffer containing various amounts of unlabeled competitor ligand, and 100 μL of binding buffer containing ca. 100,000 cpm of ¹²⁵I-[M]PTH(1-21) or ¹²⁵I-[Aib^{1,3},M]PTH(1-21)} (ca. 26 fmol; final volume=300 μL). Incubations were 4 to 6 h at 4° C., at which time near equilibrium conditions were attained. Cells were then placed on ice, the binding medium was removed, and the monolayer was rinsed three times with 0.5 mL of cold binding buffer. The cells” for “The cells”
# [7] = target: T1, wild-type human PTH/PTHrP receptor …; assay: cell-based or functional assay; remark: listed apart in the source
Binder,cAMP EC50 [1] [nM],cAMP EMax(obs.) [1] [pmole/well],cAMP EC50 [2] [nM],cAMP EMax(obs.) [2] [pmole/well],cAMP EC50 [3] [nM],cAMP EMax(obs.) [3] [pmole/well],fold weaker affinity at P1R-delNt than at P1R-WT [4] [fold],IC50 [5] [nM],IC50 [6] [nM],PLC EC50 [2] [nM],PLC EMAX(obs.) [2] [foldxbasal],PLC EC50 [3] [nM],PLC EMAX(obs.) [3] [foldxbasal],cAMP EMAX(obs.) in SaOS-2 cells [7] [pmole/well]
"[Aib]V[Aib]EIQL[Nle]HQ[hArg]AKWLASVRRY-NH2 (N-terminus assumed; SMILES CCCC[C@H](NC(=O)[C@H](CC(C)C)NC(=O)[C@H](CCC(N)=O)NC(=O)[C@@H](NC(=O)[C@H](CCC(=O)O)NC(=O)C(C)(C)NC(=O)[C@@H](NC(=O)C(C)(C)N)C(C)C)[C@@H](C)CC)C(=O)N[C@@H](Cc1c[nH]cn1)C(=O)N[C@@H](CCC(N)=O)C(=O)N[C@@H](CCCCNC(=N)N)C(=O)N[C@@H](C)C(=O)N[C@@H](CCCCN)C(=O)N[C@@H](Cc1c[nH]c2ccccc12)C(=O)N[C@@H](CC(C)C)C(=O)N[C@@H](C)C(=O)N[C@@H](CO)C(=O)N[C@H](C(=O)N[C@@H](CCCNC(=N)N)C(=O)N[C@@H](CCCNC(=N)N)C(=O)N[C@@H](Cc1ccc(O)cc1)C(N)=O)C(C)C, unlabeled peptide; also called 674 [Aib^1,3, M]PTH (1-21); 674 [Aib^1,3M]PTH(1-21)) [[Aib^1,3,M]PTH(1-21)]",4.3,284,0.8,300,0.38,240,< 2,28,27,,,,,
"[Aib]V[Aib]EIQLMHQ[hArg]AKW-NH2 (N-terminus assumed; SMILES CC[C@H](C)[C@H](NC(=O)[C@H](CCC(=O)O)NC(=O)C(C)(C)NC(=O)[C@@H](NC(=O)C(C)(C)N)C(C)C)C(=O)N[C@@H](CCC(N)=O)C(=O)N[C@@H](CC(C)C)C(=O)N[C@@H](CCSC)C(=O)N[C@@H](Cc1c[nH]cn1)C(=O)N[C@@H](CCC(N)=O)C(=O)N[C@@H](CCCCNC(=N)N)C(=O)N[C@@H](C)C(=O)N[C@@H](CCCCN)C(=O)N[C@@H](Cc1c[nH]c2ccccc12)C(N)=O, also called 671 [Aib^1,3, M]PTH (1-14); 671 [Aib^1,3M]PTH(1-14)) [[Aib^1,3,M]PTH(1-14)]",1.1,278,1.2,240,0.73,250,,2250,1600,71,4.3,130,3.1,320

# From patent US20050026839A1 (GENERAL HOSPITAL, published 2005)
